In patent US20260209789A1 (WESTLAKE UNIVERSITY, published 2026):

B1: 3xFLAG-MCP-NSP3 (other)
chain: MDYKDHDGDYKDHDIDYKDDDDKASNFTQFVLVDNGGTGDVTVAPSNFANGVAEWISSNSRSQAYKVTCSVRQSSAQKRKYTIKVEVPKVATQTVGGVELPVAAWRSYLNMELTIPIFATNSDCELIVKAMQGLLKDGNPIPSAIAANSGIYASGSGGGGDVMLKMESTQQMASSIINTSFEAAVVAATSTLELMGIQYDYNEVYTRVKSKFDYVMDDSGVKNNLLGKAATIDQALNGKFGSAARNRNWMADTRTTARLDEDVNKLRMMLSSKGIDQKMRVLNACFNVKRVPGKSSSIIKCTRLMRDKIERGEVEVDDSFVEEKMEVDTIDWKSRYEQLEKRFESLKQRVNEKYTSWVQKAKKVNENMYSLQNVISQQQSQIADLQNYCNKLEVDLQNKISSLVSSVEWYLKSMELPDEIKTDIEQQLNSIDVINPINAIDDFESLIRNIILDYDRIFLMFKGLMRQCNYEYTYE
notes: also called 3×FLAG-tagged MCP-NSP3; pSL1083
B2: 3xFLAG-MCP-ABI(iDab) (VHH)
chain: MDYKDHDGDYKDHDIDYKDDDDKASNFTQFVLVDNGGTGDVTVAPSNFANGVAEWISSNSRSQAYKVTCSVRQSSAQKRKYTIKVEVPKVATQTVGGVELPVAAWRSYLNMELTIPIFATNSDCELIVKAMQGLLKDGNPIPSAIAANSGIYASGSGGGGDVGSEVQLLESGGGLVQPGGSLRLSCAASGFTFSTFSMNWVRQAPGKGLEWVSYISKCGHVIYYADSVKGRFTISRDNSKNTLYLQMNSLRAEDTAVYYCARGPLWSFVRMSFDYWGQGTLVTVSSAS
notes: also called 3×FLAG-tagged MCP-ABI (iDab)3; 3xFLAG-MCP-(ABI(iDab))3
B3: 3xHA-CCmut3-NSP3 (designed binder)
chain: MVDPVGFAEAWKAQFPDSEPPRMELRSVGDIEQELERAEARIRRNEQRVNQERFRMIYLETLLAKEKKSYDRASGSGGGGDVASMLKMESTQQMASSIINTSFEAAVVAATSTLELMGIQYDYNEVYTRVKSKFDYVMDDSGVKNNLLGKAATIDQALNGKFGSAARNRNWMADTRTTARLDEDVNKLRMMLSSKGIDQKMRVLNACFNVKRVPGKSSSIIKCTRLMRDKIERGEVEVDDSFVEEKMEVDTIDWKSRYEQLEKRFESLKQRVNEKYTSWVQKAKKVNENMYSLQNVISQQQSQIADLQNYCNKLEVDLQNKISSLVSSVEWYLKSMELPDEIKTDIEQQLNSIDVINPINAIDDFESLIRNIILDYDRIFLMFKGLMRQCNYEYTYEYPYDVPDYAYPYDVPDYAYPYDVPDYA
notes: also called 3×HA-tagged CCmut3-NSP3; pSL1102
B4: 3xFLAG-MCP (other)
chain: MDYKDHDGDYKDHDIDYKDDDDKASNFTQFVLVDNGGTGDVTVAPSNFANGVAEWISSNSRSQAYKVTCSVRQSSAQKRKYTIKVEVPKVATQTVGGVELPVAAWRSYLNMELTIPIFATNSDCELIVKAMQGLLKDGNPIPSAIAANSGIY
notes: also called 3×FLAG-tagged MCP; pSL1084

Columns and labels:
endogenous eIF4G = endogenous eIF4G (human (endogenous in HEK-293 cells), UniProt Q04637 1-1599); test: anti-Flag co-IP from HEK-293 lysate, Western blot with anti-eIF4G (FIG. 6A)
Sequence of endogenous eIF4G (Q04637 whole entry): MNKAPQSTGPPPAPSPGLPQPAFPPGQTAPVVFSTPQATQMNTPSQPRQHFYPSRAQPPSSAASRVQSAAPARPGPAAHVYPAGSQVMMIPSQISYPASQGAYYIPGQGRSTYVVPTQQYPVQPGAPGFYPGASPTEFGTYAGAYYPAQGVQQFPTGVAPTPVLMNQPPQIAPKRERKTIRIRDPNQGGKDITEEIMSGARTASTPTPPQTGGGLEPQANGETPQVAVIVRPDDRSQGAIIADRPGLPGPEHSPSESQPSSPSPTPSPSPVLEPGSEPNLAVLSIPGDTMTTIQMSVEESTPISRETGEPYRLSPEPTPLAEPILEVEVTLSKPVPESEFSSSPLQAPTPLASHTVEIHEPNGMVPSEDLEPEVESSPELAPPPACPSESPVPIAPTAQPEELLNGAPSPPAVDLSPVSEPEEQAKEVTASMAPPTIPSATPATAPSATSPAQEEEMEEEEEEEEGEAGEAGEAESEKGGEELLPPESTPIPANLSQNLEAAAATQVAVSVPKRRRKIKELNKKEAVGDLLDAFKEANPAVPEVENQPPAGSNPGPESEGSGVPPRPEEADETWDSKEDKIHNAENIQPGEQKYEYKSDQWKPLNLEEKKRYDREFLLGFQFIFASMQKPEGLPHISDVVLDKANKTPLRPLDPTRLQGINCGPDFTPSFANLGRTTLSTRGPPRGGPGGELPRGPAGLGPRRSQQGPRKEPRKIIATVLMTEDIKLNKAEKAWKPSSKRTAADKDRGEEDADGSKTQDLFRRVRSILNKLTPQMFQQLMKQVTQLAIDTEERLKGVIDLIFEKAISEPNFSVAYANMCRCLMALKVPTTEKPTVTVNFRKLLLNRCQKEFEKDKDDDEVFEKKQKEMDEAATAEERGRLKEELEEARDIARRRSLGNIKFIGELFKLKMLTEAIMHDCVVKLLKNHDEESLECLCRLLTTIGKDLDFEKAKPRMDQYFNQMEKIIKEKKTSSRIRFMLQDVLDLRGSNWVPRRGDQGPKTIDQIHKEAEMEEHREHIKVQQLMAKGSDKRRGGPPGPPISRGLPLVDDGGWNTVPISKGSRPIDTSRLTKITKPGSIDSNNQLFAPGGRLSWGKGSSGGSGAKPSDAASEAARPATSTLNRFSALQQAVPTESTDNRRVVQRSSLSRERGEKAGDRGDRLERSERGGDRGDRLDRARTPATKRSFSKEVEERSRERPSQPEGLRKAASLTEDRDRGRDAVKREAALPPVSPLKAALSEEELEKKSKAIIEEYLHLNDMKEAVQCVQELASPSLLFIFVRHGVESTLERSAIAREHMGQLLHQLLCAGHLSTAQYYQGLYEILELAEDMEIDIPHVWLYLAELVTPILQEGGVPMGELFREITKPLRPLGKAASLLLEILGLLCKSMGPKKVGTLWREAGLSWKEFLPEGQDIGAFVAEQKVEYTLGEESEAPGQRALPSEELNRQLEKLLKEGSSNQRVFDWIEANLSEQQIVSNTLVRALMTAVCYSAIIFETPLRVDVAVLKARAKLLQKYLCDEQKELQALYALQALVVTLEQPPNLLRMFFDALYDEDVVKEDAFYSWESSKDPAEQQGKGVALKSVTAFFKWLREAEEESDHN

BCR-ABL = target: T1, BCR-ABL
T1 construct: Overexpressed in HEK-293 cells; also called BCR-ABL oncoprotein; BCR-ABL fusion protein

endogenous eIF4E = endogenous eIF4E (human (endogenous in HEK-293 cells), UniProt P06730 2-217); test: anti-Flag co-IP from HEK-293 lysate, Western blot with anti-eIF4E (FIG. 6A)
Sequence of endogenous eIF4E (P06730 2-217 limits assumed): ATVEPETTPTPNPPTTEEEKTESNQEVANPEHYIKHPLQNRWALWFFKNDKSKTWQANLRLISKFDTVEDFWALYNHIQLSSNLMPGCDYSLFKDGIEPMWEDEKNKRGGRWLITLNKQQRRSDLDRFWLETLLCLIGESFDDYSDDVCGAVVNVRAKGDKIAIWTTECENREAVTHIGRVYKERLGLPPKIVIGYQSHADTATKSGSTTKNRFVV

Binder	binding result (endogenous eIF4G)	binding result (BCR-ABL)	binding result (endogenous eIF4E)
B1	binds		
B2		binds	
B3		binds	
B4	no binding		no binding
